Patent US20110311550A1 (Scripps Research, published 2011)

What was measured:
Assay in all cases: ELISA, lectin-captured E1E2 lysate, Ab 1 ug/ml;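 also: E1E2 captured on Galanthus nivalis lectin-coated plates, bound antibody read out via HRP-linked secondary antibody with TMB colorimetric substrate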
[1] = biological target: E1E2 complex (H77) with E2 mutation E637A (HCV genotype 1a, isolate H77, UniProt P27958 192-383; P27958 384-746)
[2] = biological target: E1E2 complex (H77) with E2 mutation R639A (HCV genotype 1a, isolate H77, UniProt P27958 192-383; P27958 384-746)
[3] = biological target: E1E2 complex (H77) with E2 mutation F442A (HCV genotype 1a, isolate H77, UniProt P27958 192-383; P27958 384-746)

B1: N4 IgG (antibody, V domains shown)
VH: VQLLEQSGPEVKKPGDSLRISCKMSGDSLVTTWIGWVRQKPGQGLEWMGIINPGDSSTNIYPGDSATRYGPSFQGQVTISIDKSTSTAYLQWNNVKASDTGIYYCARHVPVPISGTFLWREREMHDFGYFDDWGQGTLVIVSS
VL: ELTLTQSPGTLSLSPGERATLSCRASQSVSNNYLAWYQQKPGQAPRLLIYGASSRATGIPDRFSGSGSGTGFTLIISRLEPEDFAVYYCQQYGSSSITFGQGTRLEIKR
notes: also called IgG N4
- Binding relative to wt (%) [1]: 67%
- Binding relative to wt (%) [2]: 114%
- Binding relative to wt (%) [3]: 22%
